Like-named read-outs stand apart in the source and are kept apart here. Positions of bridges follow the written chain, without caps; N, C: chain ends. MBP = not defined here
Assays:
Format in all cases: binding
[1] = biological target: T1, interaction between CTLA-4 and B7-1 (Homo sapiens, UniProt P16410); assay: CTLA-4:B7-1[Biotinylated] Inhibitor Screening Assay (BPS Bioscience kit)
T1 construct: purchased BPS Bioscience Inc
T1 sequence (P16410 36-161 limits assumed): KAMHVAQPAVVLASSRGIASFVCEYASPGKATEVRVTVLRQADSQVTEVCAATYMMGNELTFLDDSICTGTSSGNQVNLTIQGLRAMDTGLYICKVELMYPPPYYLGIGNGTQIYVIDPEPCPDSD
Description: We prepared the C4m-3127 cyclic peptide using chemical synthesis and examined its properties. First, the inhibitory activity was tested using a kit (CTLA-4:B7-1[Biotinylated] Inhibitor Screening Assay, BPS Bioscience Inc.) (Figure 5A). […] In a sequence of C4m-3127, the GG linker behind C-terminal Cys had mutated into Glu and Arg.
A cyclic peptide with a low EC50 value was synthesized by adding glycine to the N-terminus at Toray Research Center.
(B) Flow cytometry affinity analysis.

CTLA-4 [2] = biological target: T2, CTLA-4 (Homo sapiens, UniProt P16410); assay: ELISA-based determination of EC50 value of MBP–peptide–His-tag fusion constructs
T2 sequence (P16410 36-223): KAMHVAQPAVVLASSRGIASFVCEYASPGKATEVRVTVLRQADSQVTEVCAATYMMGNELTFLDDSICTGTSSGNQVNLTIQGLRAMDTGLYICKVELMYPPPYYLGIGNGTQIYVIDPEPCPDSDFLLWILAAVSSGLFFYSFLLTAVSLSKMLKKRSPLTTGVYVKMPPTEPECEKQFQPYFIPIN
Description: Peptides with binding specificity for CTLA-4 were overexpressed as fusion proteins with MBP at the N-terminus and His-tag at the C-terminus. After BL21(DE3) E. coli cells were transformed, the fusion constructs were grown in 200 mL of 2xYT/[…] ampicillin at 37 °C until an OD600 of 0.5–0.8 was reached. Then, IPTG (0.5 mM) was added. The broth was incubated at 25 °C with shaking overnight. After the cell broth was centrifuged, the pellet was resuspended in 20 mM Tris-HCl pH 7.5/500 mM NaCl and sonicated (Bioruptor UCD-250, Sonicbio Co. Ltd., Kanagawa, Japan). The sample was centrifuged, then the supernatant was purified on Ni Sepharose^TM 6FF (Cytiva, Tokyo, Japan). The purified sample was buffer exchanged to PBS by dialysis and quantified using a kit (BCA Protein Assay Kit, Thermo Fisher Scientific, Waltham, MA, USA).
CTLA-4 (5 μg/mL) was coated onto a NUNC® Maxisoap^TM 384 well plate and incubated at 4 °C overnight. After the wells were washed twice with TBS/0.05% Tween-20, they were blocked with 100 μL of TBS/0.05% Tween-20/5% skim milk by incubating at RT for 1 h with shaking. […] The absorbance was measured at 450 nm/650 nm with a microplate reader (Infinite F200, Tecan Japan Co., Ltd., Kanagawa, Japan). The absorbance versus the concentration of MBP–peptide–His-tag fusion was found. The midpoint concentration was determined as the half-maximal effective concentration (EC50) value.

CTLA-4 [3] = biological target: T2, CTLA-4; assay: E. coli lysate ELISA of MBP–peptide fusion proteins; settings: alanine mutants of C4m-310044 as MBP–peptide–His-tag fusion protein, compared with C4m-310044
Text: We generated 14 alanine mutants as an MBP–peptide–His-tag fusion protein (Supplementary Figure S1A), and systematically investigated the effects of alanine substitution by lysate ELISA (Supplementary Figure S1B). […] These eight residues were regarded as important for the interaction between C4m-310044 peptide and CTLA-4. Of the eight residues, six (H2, P3, L5, S9, H11, and F12) were highly conserved even after affinity maturation of C4-302 (Figure 4). These six amino acids were essential residues for binding with CTLA-4. […] Neither of these two residues is involved in binding, but they seem to contribute to affinity. […]
(B) 14 variants shown in (A) were expressed as the MBP-peptide fusion protein. The binding activity of each on CTLA-4 was evaluated using lysate ELISA. The BL21(DE3) E. coli cells transformed with each alanine scanning mutant were grown in 100 μL of 2xYT/50 μg/mL ampicillin at 37 °C until OD600 of 0.5–0.8 was reached. After IPTG (0.5 mM) was added, the broth was incubated at 25 °C, with shaking overnight. The cell broth was lysed using lysis buffer (5 mg/mL lysozyme (FUJIFILM Wako) in PBS, 50% BugBuster ® (v/v) (Merck Millipore) at RT for 2 h, with shaking. The lysate was blocked with TBS/0.05% Tween-20/12.5% skim milk by incubating at RT for 0.5 h, shaking, then added to CTLA-4-immobilized wells on 384-plate and incubated at RT for 1.5 h. After washing and incubation with anti-FLAG M2 ®-peroxidase antibody (1:10,000; Sigma Aldrich) at RT for 1 h, the absorbance at 450 nm/ 650 nm was read with a microplate reader through the reaction with 1x TMB substrate solution and 2N

[4] = inhibition of CTLA-4:B7-1 interaction, luminescence, four-parameter logistic fit, read-out: IC50

Row | Compound | absorbance in lysate ELISA (CTLA-4 [3]) | other results
1 | CC(C)[C@H]1ON(C(=O)OCc2ccccc2)[C@H]2CN(CCc3ccccc3)C(=O)[C@H](Cc3c[nH]cn3)N2C1=O [PGF00432, Benzyl (3R,6S,9aS)-6-((1H-imidazol-4-yl)methyl)-3-isopropyl-4,7-dioxo-8-phenethylhexahydropyrazino [2,1-c][1,2,4]oxadiazine-1(6H)-carboxylate] |  | IC50 [1, 4]: 294 µM
2 | CC(C)[C@H]1ON(C(=O)OCc2ccccc2)[C@H]2CN(CCc3ccccc3)C(=O)[C@H](CCCNC(=N)N)N2C1=O [PGF00452, Benzyl (3R,6S,9aS)-6-(3-guanidinopropyl)-3-isopropyl-4,7-dioxo-8-phenethylhexahydropyrazino [2,1-c][1,2,4]oxadiazine-1(6H)-carboxylate] |  | IC50 [1, 4]: 147 µM
3 | N=C(N)NCCC[C@H]1C(=O)N(CCc2ccccc2)C[C@@H]2N(C(=O)OCc3ccccc3)O[C@H](CC3CCCCC3)C(=O)N21 [PGF00478, Benzyl (3R,6S,9aS)-3-(cyclohexylmethyl)-6-(3-guanidinopropyl)-4,7-dioxo-8-phenethylhexahydropyrazino [2,1-c][1,2,4]oxadiazine-1(6H)-carboxylate] |  | IC50 [1, 4]: 80 µM; IC50 ([1]; values printed in Figure 7, read-out: IC50, CTLA-4/B7-1 interaction inhibitory activity): 60 µM
4 | C4m-3127: best binder clone from affinity maturation of C4-302, random loop MHPFLPIVSHHF, expressed as MBP fusion protein ({MBP}-CMHPFLPIVSHHFCER-{His‑tag}; disulfide 1-14 (inferred); not fully specified; reading uncertain) |  | IC50 ([1]; inhibition of CTLA-4:B7-1 interaction, luminescence, four-parameter logistic fit, listed as MBP–C4m-3127 peptide–His-tag fusion protein, read-out: IC50): 1.36 µM; IC50 [1, 4]: 11.5 µM; affinity relative to C4-302 (CTLA-4 [2]; MBP fusion protein, times greater affinity than C4-302): 50 times; EC50 (CTLA-4 [2]; purified MBP–peptide–His-tag fusion protein, ELISA on immobilized CTLA-4): 74.7 nM
5 | F4A: alanine mutant of C4m-310044 as MBP–peptide–His-tag fusion protein ({MBP}-CLHPALPIVSHHFCGR-{His‑tag}; disulfide 1-14 (inferred); reading uncertain) | same level of absorbance with C4m-310044 | 
6 | F12A: alanine mutant of C4m-310044 as MBP–peptide–His-tag fusion protein ({MBP}-CLHPFLPIVSHHACGR-{His‑tag}; disulfide 1-14 (inferred); reading uncertain) | marked decrease in absorbance | 
7 | G(+1)A: alanine mutant of C4m-310044 as MBP–peptide–His-tag fusion protein ({MBP}-CLHPFLPIVSHHFCAR-{His‑tag}; disulfide 1-14 (inferred); reading uncertain) | same level of absorbance with C4m-310044 | 
8 | H2A: alanine mutant of C4m-310044 as MBP–peptide–His-tag fusion protein ({MBP}-CLAPFLPIVSHHFCGR-{His‑tag}; disulfide 1-14 (inferred); reading uncertain) | marked decrease in absorbance | 
9 | H10A: alanine mutant of C4m-310044 as MBP–peptide–His-tag fusion protein ({MBP}-CLHPFLPIVSAHFCGR-{His‑tag}; disulfide 1-14 (inferred); reading uncertain) | same level of absorbance with C4m-310044 | 
10 | H11A: alanine mutant of C4m-310044 as MBP–peptide–His-tag fusion protein ({MBP}-CLHPFLPIVSHAFCGR-{His‑tag}; disulfide 1-14 (inferred); reading uncertain) | marked decrease in absorbance | 
11 | I7A: alanine mutant of C4m-310044 as MBP–peptide–His-tag fusion protein ({MBP}-CLHPFLPAVSHHFCGR-{His‑tag}; disulfide 1-14 (inferred); reading uncertain) | marked decrease in absorbance | 
12 | L1A: alanine mutant of C4m-310044 as MBP–peptide–His-tag fusion protein ({MBP}-CAHPFLPIVSHHFCGR-{His‑tag}; disulfide 1-14 (inferred); reading uncertain) | same level of absorbance with C4m-310044 | 
13 | L5A: alanine mutant of C4m-310044 as MBP–peptide–His-tag fusion protein ({MBP}-CLHPFAPIVSHHFCGR-{His‑tag}; disulfide 1-14 (inferred); reading uncertain) | marked decrease in absorbance | 
14 | P3A: alanine mutant of C4m-310044 as MBP–peptide–His-tag fusion protein ({MBP}-CLHAFLPIVSHHFCGR-{His‑tag}; disulfide 1-14 (inferred); reading uncertain) | marked decrease in absorbance | 
15 | P6A: alanine mutant of C4m-310044 as MBP–peptide–His-tag fusion protein ({MBP}-CLHPFLAIVSHHFCGR-{His‑tag}; disulfide 1-14 (inferred); reading uncertain) | marked decrease in absorbance | 
16 | R(+2)A: alanine mutant of C4m-310044 as MBP–peptide–His-tag fusion protein ({MBP}-CLHPFLPIVSHHFCGA-{His‑tag}; disulfide 1-14 (inferred); reading uncertain) | same level of absorbance with C4m-310044 | 
17 | S9A: alanine mutant of C4m-310044 as MBP–peptide–His-tag fusion protein ({MBP}-CLHPFLPIVAHHFCGR-{His‑tag}; disulfide 1-14 (inferred); reading uncertain) | marked decrease in absorbance | 
18 | V8A: alanine mutant of C4m-310044 as MBP–peptide–His-tag fusion protein ({MBP}-CLHPFLPIASHHFCGR-{His‑tag}; disulfide 1-14 (inferred); reading uncertain) | same level of absorbance with C4m-310044 | 
